One molecule from PMC9750192 (The Journal of Cell Biology, 2022) can be followed below.

The experiment addresses VASH2 (Cys158Ala), the VASH2 chain of the cryo-EM sample (human, UniProt Q86V25 1-355, Cys158 to alanine). The experiment in a line: cryo-EM structure.

Sequence of VASH2 (Cys158Ala), the VASH2 chain of the cryo-EM sample (Q86V25 whole entry C158A): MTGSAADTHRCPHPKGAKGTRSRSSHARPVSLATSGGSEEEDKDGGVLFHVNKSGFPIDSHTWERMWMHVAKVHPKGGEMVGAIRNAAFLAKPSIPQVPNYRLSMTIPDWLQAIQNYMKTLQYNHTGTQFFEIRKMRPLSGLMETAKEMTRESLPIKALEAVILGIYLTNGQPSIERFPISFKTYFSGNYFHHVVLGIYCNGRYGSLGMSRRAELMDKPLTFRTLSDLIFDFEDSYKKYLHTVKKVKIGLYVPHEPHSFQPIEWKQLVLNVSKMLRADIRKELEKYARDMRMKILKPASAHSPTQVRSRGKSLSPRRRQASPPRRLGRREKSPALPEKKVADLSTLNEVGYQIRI

B1: SVBP with a 6His tag, the SVBP chain of the cryo-EM sample (natural protein, human, UniProt Q8N300 1-66, looked up)
chain: MDPPARKEKTKVKESVSRVEKAKQKSAQQELKQRQRAEIYALNRVMTELEQQQFDEFCKQMQPPGE
Regarding B1, the binding result is “binds”.
